Results on one protein are retold here after paper PMC7614720.

Substrate in this series: C[C@@H](O)[C@H]1C(=O)N2C(C(=O)O)=C([C@H]3CCCO3)S[C@H]12
Kind of series: purified protein. The format is biochemical, Stenotrophomonas maltophilia. The conditions noted are these: two Zn2+ ions active site.

B1: L1 (Stenotrophomonas maltophilia) (protein)
chain: VDASWLQPMAPLQIADHTWQIGTEDLTALLVQTPDGAVLLDGGMPQMASHLLDNMKARGVTPRDLRLILLSHAHADHAGPVAELKRRTGAKVAANAESAVLLARGGSDDLHFGDGITYPPANADRIVMDGEVITVGGIVFTAHFMAGHTPGSTAWTWTDTRNGKPVRIAYADSLSAPGYQLQGNPRYPHLIEDYRRSFATVRALPCDVLLTPHPGASNWDYAAGARAGAKALTCKAYADAAEQKFDGQLAKETAGAR
With B1, the Km (usually the substrate concentration at which the rate is half of its maximum) is 36.3 µM; the kcat (in general, the number of substrate molecules converted per active site and unit of time at saturation) was 43.7 s⁻¹; the kcat/Km (usually the turnover number divided by the Michaelis constant) was 1.2e+06 M⁻¹ s⁻¹.
